# Measured values taken from patent publication US20220154204.
# T1: GST-OST1/SnRK2.6, Q940H6
# T1 chain: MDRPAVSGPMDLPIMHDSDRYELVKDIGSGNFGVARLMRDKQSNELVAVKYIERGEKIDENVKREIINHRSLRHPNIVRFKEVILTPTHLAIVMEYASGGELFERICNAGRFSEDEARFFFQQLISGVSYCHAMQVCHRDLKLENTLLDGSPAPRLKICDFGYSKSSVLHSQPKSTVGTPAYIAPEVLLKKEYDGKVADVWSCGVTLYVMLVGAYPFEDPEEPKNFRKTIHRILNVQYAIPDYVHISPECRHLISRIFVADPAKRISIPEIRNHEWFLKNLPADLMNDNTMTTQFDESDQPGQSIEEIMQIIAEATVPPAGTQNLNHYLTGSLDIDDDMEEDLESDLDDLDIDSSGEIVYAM
# B1: MPK12 (protein)
# chain: MSGESSSGSTEHCIKVVPTHGGRYVQYNVYGQLFEVSRKYVPPIRPIGRGACGIVCAAVNSVTGEKVAIKKIGNAFDNIIDAKRTLREIKLLRHMDHENVITIKDIVRPPQRDIFNDVYIVYELMDTDLQRILRSNQTLTSDQCRFLVYQLLRGLKYVHSANILHRDLRPSNVLLNSKNELKIGDFGLARTTSDTDFMTEYVVTRWYRAPELLLNCSEYTAAIDIWSVGCILGEIMTGQPLFPGKDYVHQLRLITELVGSPDNSSLGFLRSDNARRYVRQLPRYPKQQFAARFPKMPTTAIDLLERMLVFDPNRRISVDEALGHAYLSPHHDVAKEPVCSTPFSFDFEHPSCTEEHIKELIYKESVKFNPDH
# Target: T1, GST-OST1/SnRK2.6, Q940H6
protein,measurement,value
B1,in vitro phosphorylation assay with 32P-ATP after dephosphorylation of OST1,did not phosphorylate OST1/SnRK2.6 after dephosphorylation
